Numbering of substitutions follows the chain as printed. In names and notes the source's numbering stands.
What was measured:
[1] = target: T1, human prolactin receptor (PRLR) on cells (human, UniProt P16471 25-622); experiment: FACS, HEK293/hPRLR cells; also: test concentration or dose not given here
T1 construct: T47D, T47D#11 and MCF7 carry the endogenous receptor; also called hPRLR; HEK293/hPRLR
T1 sequence: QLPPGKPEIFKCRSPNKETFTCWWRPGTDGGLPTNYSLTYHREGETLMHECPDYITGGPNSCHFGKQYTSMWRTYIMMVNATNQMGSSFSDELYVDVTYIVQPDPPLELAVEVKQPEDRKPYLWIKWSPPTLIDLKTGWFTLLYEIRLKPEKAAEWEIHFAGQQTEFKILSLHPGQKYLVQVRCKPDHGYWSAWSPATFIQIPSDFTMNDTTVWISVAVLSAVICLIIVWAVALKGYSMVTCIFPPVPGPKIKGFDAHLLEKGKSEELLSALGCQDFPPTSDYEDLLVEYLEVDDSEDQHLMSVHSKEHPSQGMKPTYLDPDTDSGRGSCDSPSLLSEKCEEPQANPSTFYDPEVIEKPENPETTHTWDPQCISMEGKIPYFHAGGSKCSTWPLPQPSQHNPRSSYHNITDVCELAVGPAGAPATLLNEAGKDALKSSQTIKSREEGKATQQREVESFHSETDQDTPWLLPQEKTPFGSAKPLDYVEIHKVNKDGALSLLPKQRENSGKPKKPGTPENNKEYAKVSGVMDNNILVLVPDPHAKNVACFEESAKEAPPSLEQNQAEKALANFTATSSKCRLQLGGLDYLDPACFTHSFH

[2] = target: T2, mouse PRLR on HEK293 cells (mouse, UniProt Q08501 20-608); experiment: FACS, HEK293/mPRLR cells; also: test concentration or dose not given here
T2 construct: whole, on cells; also called mPRLR; HEK293/mPRLR
T2 sequence (looked up): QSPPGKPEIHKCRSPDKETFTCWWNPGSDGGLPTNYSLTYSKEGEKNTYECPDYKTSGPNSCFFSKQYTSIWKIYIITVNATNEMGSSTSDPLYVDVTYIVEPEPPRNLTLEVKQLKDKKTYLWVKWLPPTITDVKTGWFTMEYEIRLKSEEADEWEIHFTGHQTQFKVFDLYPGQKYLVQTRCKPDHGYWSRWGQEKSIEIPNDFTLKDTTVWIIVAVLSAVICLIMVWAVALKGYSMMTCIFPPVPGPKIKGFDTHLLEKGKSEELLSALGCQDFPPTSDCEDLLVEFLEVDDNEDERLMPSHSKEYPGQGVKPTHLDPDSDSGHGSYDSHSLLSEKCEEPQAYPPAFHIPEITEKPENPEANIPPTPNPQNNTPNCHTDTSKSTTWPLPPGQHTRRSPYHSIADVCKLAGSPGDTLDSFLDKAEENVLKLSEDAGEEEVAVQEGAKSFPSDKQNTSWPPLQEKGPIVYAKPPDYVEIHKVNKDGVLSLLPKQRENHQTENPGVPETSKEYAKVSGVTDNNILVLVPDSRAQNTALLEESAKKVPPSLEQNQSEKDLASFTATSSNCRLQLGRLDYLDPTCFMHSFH

[3] = target: T3, monkey (macaca fascicularis) PRLR on HEK293 cells (macaca fascicularis, UniProt A0A2K5WXK1 25-619); experiment: FACS, HEK293/mfPRLR cells; also: test concentration or dose not given here
T3 construct: also called mfPRLR; HEK293/mfPRLR
T3 sequence: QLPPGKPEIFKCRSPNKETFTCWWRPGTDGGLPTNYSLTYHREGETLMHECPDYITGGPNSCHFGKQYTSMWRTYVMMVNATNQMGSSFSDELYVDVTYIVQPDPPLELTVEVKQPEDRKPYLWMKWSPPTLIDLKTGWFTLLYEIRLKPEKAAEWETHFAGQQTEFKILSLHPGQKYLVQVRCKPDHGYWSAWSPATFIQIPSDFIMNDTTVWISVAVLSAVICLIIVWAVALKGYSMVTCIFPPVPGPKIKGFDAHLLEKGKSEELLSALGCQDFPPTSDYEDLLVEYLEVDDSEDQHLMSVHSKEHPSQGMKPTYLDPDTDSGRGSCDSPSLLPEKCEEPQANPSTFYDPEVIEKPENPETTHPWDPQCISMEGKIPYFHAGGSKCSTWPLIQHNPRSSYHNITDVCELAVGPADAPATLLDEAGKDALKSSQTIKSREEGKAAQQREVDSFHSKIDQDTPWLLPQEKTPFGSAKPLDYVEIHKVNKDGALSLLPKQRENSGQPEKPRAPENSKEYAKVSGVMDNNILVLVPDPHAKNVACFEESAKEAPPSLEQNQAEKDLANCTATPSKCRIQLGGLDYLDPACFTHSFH

[4] = target: T1, human prolactin receptor (PRLR) on cells; experiment: FACS, T47D cells (native PRLR); also: test concentration or dose not given here
[5] = target: T4, hPRLR.mFc (soluble dimeric human PRLR) (human); experiment: SPR, 37C, mAb capture
T4 construct: dimeric construct
T4 chain: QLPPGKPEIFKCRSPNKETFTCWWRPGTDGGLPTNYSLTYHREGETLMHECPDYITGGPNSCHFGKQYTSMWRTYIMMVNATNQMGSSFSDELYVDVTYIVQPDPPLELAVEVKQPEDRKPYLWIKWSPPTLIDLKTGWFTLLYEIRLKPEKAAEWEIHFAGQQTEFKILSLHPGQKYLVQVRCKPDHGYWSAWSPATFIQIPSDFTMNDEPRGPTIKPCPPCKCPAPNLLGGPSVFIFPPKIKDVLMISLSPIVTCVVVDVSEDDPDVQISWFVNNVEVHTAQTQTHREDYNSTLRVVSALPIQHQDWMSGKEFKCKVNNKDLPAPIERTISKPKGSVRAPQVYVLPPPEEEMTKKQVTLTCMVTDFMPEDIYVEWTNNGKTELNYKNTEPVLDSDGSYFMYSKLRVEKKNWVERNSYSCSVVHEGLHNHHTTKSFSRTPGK
Protocol: (§1) Measurements were conducted on a T200 Biacore instrument. Kinetic association (kₐ) and dissociation (kd) rate constants were determined by processing and fitting the data to a 1:1 binding model using Scrubber 2.0 curve fitting software. Binding dissociation equilibrium constants (KD) and dissociative half-lives (t_{1/2}) were calculated from the kinetic rate constants as: KD (M)=kd/kₐ; and […].

[6] = target: T5, mfPRLR.mmh (soluble monomeric macaca fascicularis PRLR) (macaca fascicularis); experiment: SPR, 37C, mAb capture
T5 construct: soluble monomeric construct; also called macaca fascicularis (mf) PRLR.mmh
T5 chain: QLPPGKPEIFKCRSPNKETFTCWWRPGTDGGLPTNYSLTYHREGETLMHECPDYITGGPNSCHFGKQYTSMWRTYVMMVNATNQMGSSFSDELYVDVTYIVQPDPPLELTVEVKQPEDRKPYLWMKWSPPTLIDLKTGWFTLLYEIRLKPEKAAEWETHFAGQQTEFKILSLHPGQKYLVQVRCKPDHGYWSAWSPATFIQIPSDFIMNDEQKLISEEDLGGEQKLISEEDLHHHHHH
Protocol: as §1

[7] = target: T6, hPRLR.mmh (soluble monomeric human PRLR) (human); experiment: SPR, 37C, mAb capture
T6 construct: soluble monomeric construct
T6 chain: T5 chain with V76I, T110A, M125I, T158I, I207T
Protocol: as §1

[8] = target: T1, human prolactin receptor (PRLR) on cells; experiment: cell-based or functional assay
[9] = target: T7, human prolactin receptor (PRLR), cell surface-expressed (human, UniProt P16471 25-622); experiment: cell-based or functional assay
T7 sequence: T1 sequence

B1: H1H6790P (antibody, human IgG1, V domains shown)
VH: EVQLVESGGGLVQPGGSLRLSCAASGFTFSSYAMTWVRQAPGKGLEWVSAITGSVGNTYYADSVKGRFTISRDNSKNTLYLQMNSLGAEDTAEYYCAKGAGMTTNWYLDLWGRGTLVTVSS
VL: DIVMTQSPDSLAVSLGARATINCKSSQSVLYSSNNQNYLTWYQQKPGQPPKLLIKWASTRESGVPDRFSGSGSGTDFTLTISSLQAEDVAVYYCQQYASSPYTFGQGTKLEIK
notes: human IgG1 Fc (H1H)
FACS Cell Binding (Fold Above Background) [1]: 37 fold above background
FACS Cell Binding (Fold Above Background) [2]: 1 fold above background
FACS Cell Binding (Fold Above Background) [3]: 24 fold above background
FACS Cell Binding (Fold Above Background) [4]: 34 fold above background
T½ [5]: 58 min
T½ [6]: 4 min
T½ [7]: 4 min
% Internalization relative to Control I (alexa488 intensity in intracellular vesicles at 37 C, T47D cells) [8]: 147%

B2: H1H6804P (antibody, human IgG1, V domains shown)
VH: QVTLKESGPVLVKPTQTLSLTCTVSGFSLSDAGMGVSWIRQPPGKALEWLAHIFSNDGKSYSTSLKSRLTISKDTSKRQVVLTMTNMDPVDTATYYCARIRTGTYSLYLDYWGQGTLVTVSS
VL: DIQMTQSPSSLSASVGDRVTITCRASQSINSYLNWYQQKPGKAPKLLLYFASSLQSGVPSRFSGSGSGTDFTLTISSLQPEDFASYYCQESYSTPWTFGQGTKVEIK
notes: human IgG1 Fc (H1H)
FACS Cell Binding (Fold Above Background) [1]: 1 fold above background
FACS Cell Binding (Fold Above Background) [2]: 1 fold above background
FACS Cell Binding (Fold Above Background) [3]: 29 fold above background
FACS Cell Binding (Fold Above Background) [4]: 34 fold above background
T½ [5]: 56 min
T½ [6]: 3 min
T½ [7]: 3 min
% Internalization relative to Control I (alexa488 intensity in intracellular vesicles at 37 C, T47D cells) [8]: 139%

B3: H1H6966N (antibody, human IgG1, V domains shown)
VH: QVQLVQSGAEVQKPGASVKVSCKVSGYTLTALSIHWVRQAPGKGLEWMGNFDPGDGETIHAQKFQGRVTMTGDTSTDTAYMELSSLRSEDTAVYYCVGVTFDYWGQGTLVTVSS
VL: EIVMTQSPATLSVSPGERATLSCRASQSVASNLAWYQQKPGQAPRLLLYGASTRATGIPARFSGSGSGTEFTLTISSLQSEDFALYYCQHYNNWPLTFGGGTKVEIK
notes: also called H2M6966N
FACS Cell Binding (Fold Above Background) [1]: 29 fold above background
FACS Cell Binding (Fold Above Background) [2]: 1 fold above background
FACS Cell Binding (Fold Above Background) [3]: 18 fold above background
FACS Cell Binding (Fold Above Background) [4]: 31 fold above background
T½ [5]: 91.3 min
T½ [6]: 9.6 min
T½ [7]: 12 min
% Internalization relative to Control I (alexa488 intensity in intracellular vesicles at 37 C, T47D cells) [8]: 137%

B4: H1H6782P-SMCC-DM1 (antibody, human IgG1, V domains shown)
VH: EVQLVESGGGLVQPGRSLRLSCAASGFTFDDYAMHWVRQAPGKGLEWVSGIIWNSGHIGYGDSVKGRFTISRDNAKKSLYLQMNSLRAEDTALYYCARDSGRYQSYFDYWGQGTLVTVSS
VL: DIQMTQSPSTLSASVGDRVTITCRASHIISSWLAWYQQKPGKAPKVLIFKASSLESGVPSRFSGSGSGTEFTLTISSLQPDDFATYYCQQYNTYSRTFGQGTKVEIK
modifications: DM1 conjugated through an SMCC linker; attachment residues not stated
IC50, cell viability, T47D cells [9]: 1 nM

B5: H1H6797P (antibody, human IgG1, V domains shown)
VH: EVQLVESGGGLVQPGGSLRLSCIVSGFTFSGSWMSWVRQLPGKGLEWVANIKEDGSDSYYVDSVEGRFTISRDNAKSSLYLQMNSLRVDDTAVYFCARARTVPLHYWGQGTLVTVSS
VL: DIQMTQSPSTLSASVGDRVTITCRASQSINIWLAWYQQKPGKAPKLLIYRASYLESGVPSSFAGGGSGTEFTLTISSLQPDDFGTYYCQHYNSYPFTFGQGTKLEIK
notes: human IgG1 Fc (H1H)
FACS Cell Binding (Fold Above Background) [1]: 1 fold above background
FACS Cell Binding (Fold Above Background) [2]: 2 fold above background
FACS Cell Binding (Fold Above Background) [3]: 25 fold above background
FACS Cell Binding (Fold Above Background) [4]: 38 fold above background
T½ [5]: 93 min
T½ [6]: 1 min
T½ [7]: 1 min
% Internalization relative to Control I (alexa488 intensity in intracellular vesicles at 37 C, T47D cells) [8]: 145%

B6: H1H6960N (antibody, human IgG1, V domains shown)
VH: EVQLVESGGGLVKPGGSLRLSCAASGITFSSYSMNWVRQAPGKGLEWVSSISTRSSLIHYADSVKGRFTISRDNAKNSLYLQMNSLRDEDTAVYYCARWDAAAAFDYWGQGTLVIVSS
VL: DIQLTQSPSFLSASVGDRVTITCWASQGISSYLAWYQQKPGKAPKLLIYVASTLQSGVPSRFSGSGSGTEFTLTISSLQPEDFATYFCQQLNSYPLTFGGGTKVEIK
notes: also called H2M6960N
FACS Cell Binding (Fold Above Background) [1]: 29 fold above background
FACS Cell Binding (Fold Above Background) [2]: 1 fold above background
FACS Cell Binding (Fold Above Background) [3]: 23 fold above background
FACS Cell Binding (Fold Above Background) [4]: 33 fold above background
T½ [5]: 78.7 min
T½ [6]: 9 min
T½ [7]: 5.8 min
% Internalization relative to Control I (alexa488 intensity in intracellular vesicles at 37 C, T47D cells) [8]: 120%

B7: H1H6807P (antibody, V domains shown)
VH: QVQLVESGGGVVQPGRSLRLSCAASGFTFSDYNMHWVRQAPGKGLEWVAVIWYDGSNKHYADSVKGRFTISRDNSKNTLYLQMNSLRAEDTAVYYCARDGFTIFGMVLDYWGQGTLVTVSS
VL: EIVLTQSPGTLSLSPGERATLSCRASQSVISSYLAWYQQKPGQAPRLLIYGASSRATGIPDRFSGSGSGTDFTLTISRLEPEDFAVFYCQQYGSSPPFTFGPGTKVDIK
notes: human IgG1 Fc (H1H)
FACS Cell Binding (Fold Above Background) [1]: 32 fold above background
FACS Cell Binding (Fold Above Background) [2]: 2 fold above background
FACS Cell Binding (Fold Above Background) [3]: 27 fold above background
FACS Cell Binding (Fold Above Background) [4]: 34 fold above background
T½ [5]: 105 min
T½ [6]: 32 min
T½ [7]: 34 min
% Internalization relative to Control I (alexa488 intensity in intracellular vesicles at 37 C, T47D cells) [8]: 147%
